Here are results for 1 molecule from PMC13064845 (2025).

This test addresses thrombospondin-1 (TSP1), immobilised in the Biacore analysis (UniProt P35441 19-1170). As to the kind of experiment: SPR. A general note: In SPR one partner is held on a chip, and binding of the other changes the refractive index at the surface.

Chain of thrombospondin-1 (TSP1), immobilised in the Biacore analysis (P35441 19-1170): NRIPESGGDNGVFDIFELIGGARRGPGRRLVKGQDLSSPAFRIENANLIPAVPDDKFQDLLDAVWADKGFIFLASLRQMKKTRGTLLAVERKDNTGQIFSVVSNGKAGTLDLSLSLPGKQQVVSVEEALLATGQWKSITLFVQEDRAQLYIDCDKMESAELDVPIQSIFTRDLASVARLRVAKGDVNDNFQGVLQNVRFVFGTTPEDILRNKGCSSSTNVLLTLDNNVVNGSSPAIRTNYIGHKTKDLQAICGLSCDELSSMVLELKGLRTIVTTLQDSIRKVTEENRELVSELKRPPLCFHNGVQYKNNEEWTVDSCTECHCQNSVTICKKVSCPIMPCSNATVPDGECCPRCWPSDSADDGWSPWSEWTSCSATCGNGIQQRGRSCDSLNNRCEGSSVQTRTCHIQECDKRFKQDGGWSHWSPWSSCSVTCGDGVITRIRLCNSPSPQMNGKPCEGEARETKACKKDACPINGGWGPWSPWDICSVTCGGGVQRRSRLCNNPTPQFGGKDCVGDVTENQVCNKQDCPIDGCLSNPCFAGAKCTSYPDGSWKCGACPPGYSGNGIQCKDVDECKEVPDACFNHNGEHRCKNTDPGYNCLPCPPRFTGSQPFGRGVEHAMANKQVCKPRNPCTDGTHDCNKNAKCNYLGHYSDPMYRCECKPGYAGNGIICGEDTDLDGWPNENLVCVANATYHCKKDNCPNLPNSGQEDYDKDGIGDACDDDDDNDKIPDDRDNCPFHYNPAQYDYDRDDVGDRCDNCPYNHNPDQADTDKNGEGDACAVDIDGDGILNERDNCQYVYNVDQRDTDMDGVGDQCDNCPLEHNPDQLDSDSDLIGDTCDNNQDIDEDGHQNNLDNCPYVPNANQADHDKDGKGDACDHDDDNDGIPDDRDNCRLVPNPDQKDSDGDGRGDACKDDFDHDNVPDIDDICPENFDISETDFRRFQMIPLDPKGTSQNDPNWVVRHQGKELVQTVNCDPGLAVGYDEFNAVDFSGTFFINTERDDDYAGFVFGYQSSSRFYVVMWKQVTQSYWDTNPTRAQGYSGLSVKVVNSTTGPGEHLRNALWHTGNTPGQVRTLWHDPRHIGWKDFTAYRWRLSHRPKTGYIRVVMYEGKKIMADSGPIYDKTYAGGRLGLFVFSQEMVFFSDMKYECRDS

B1: fibulin-7 (FBLN7), analyte of the Biacore analysis (natural protein)
chain: QSCLNKQQLLTTIRQLQQLLKGQETRFTEGIRNMKSRLAALQNTVNKMTPDAPPVSCPALEAPPDGKKFGSKYLVDHEVYFTCNPGFQLVGPSSVVCLANGSWTGEQPRCRDISECSSQPCHNGGTCVEGINHYRCICPPGKTGNRCQHQTQAAAPDGGEAGDPAFSRAPRCAQVEREQHCSCEAGFHLSSTTGGHSVCQDVNECEIYGQKGRPRLCMHACVNTPGSYRCTCPSGYRILADGKSCEDVDECAGPQHMCPRGTTCINTGGGFQCVNPECPEGSGNISYVKTSPFQCERNPCPMDSRPCRHLPKTISFHYLSLPSKLKTPITLFRMATASIPGHPGPNSLRFGIVGGNSRGHFVMQRSDRQTGELILTQTLEGPQTLEVDVDMSEYLERSFQANHVSKVTIFVSRYDF
With B1, the Kd (commonly a measure of binding affinity in units of concentration) turned out to be 29.9 nM.
